Source: publication PMC10577314 (Frontiers in Cell and Developmental Biology, 2023)

B1: SAP102 PDZ2 (aa241–331) (domain or fragment, rat, UniProt Q62936 241-331, looked up)
chain: TIMEVNLLKGPKGLGFSIAGGIGNQHIPGDNSIYITKIIEGGAAQKDGRLQIGDRLLAVNNTNLQDVRHEEAVASLKNTSDMVYLKVAKPG
notes: source: E. coli BL21-DE3, purified (Ni-HiTrap HP, SENP2 cleavage, Superdex 200); not shown: His6-SUMO, N-terminal, cleaved
B2: SAP102 PDZ1-PDZ2 (aa144–331) (domain or fragment, rat, UniProt Q62936 144-331, looked up)
chain: MFKYEEIVLERGNSGLGFSIAGGIDNPHVPDDPGIFITKIIPGGAAAMDGRLGVNDCVLRVNEVDVSEVVHSRAVEALKEAGPVVRLVVRRRQPPPETIMEVNLLKGPKGLGFSIAGGIGNQHIPGDNSIYITKIIEGGAAQKDGRLQIGDRLLAVNNTNLQDVRHEEAVASLKNTSDMVYLKVAKPG
notes: also called tandem PDZ1-PDZ2; source: E. coli BL21-DE3, purified (Ni-HiTrap HP, SENP2 cleavage, Superdex 200); not shown: His6-SUMO, N-terminal, cleaved

Molecular target: T1, C-terminal half of Sec8 (Sec8c, aa544–975) (rat, UniProt Q62824 544-975)
T1 construct: Sec8 (exocyst subunit), Rattus norvegicus, C-terminal half, aa544–975; ends with the ITTV motif; Used in ITC and SEC under the plain name Sec8c; source: E. coli BL21-DE3, purified (Ni-HiTrap HP; Superdex 200)
T1 sequence (Q62824 544-975): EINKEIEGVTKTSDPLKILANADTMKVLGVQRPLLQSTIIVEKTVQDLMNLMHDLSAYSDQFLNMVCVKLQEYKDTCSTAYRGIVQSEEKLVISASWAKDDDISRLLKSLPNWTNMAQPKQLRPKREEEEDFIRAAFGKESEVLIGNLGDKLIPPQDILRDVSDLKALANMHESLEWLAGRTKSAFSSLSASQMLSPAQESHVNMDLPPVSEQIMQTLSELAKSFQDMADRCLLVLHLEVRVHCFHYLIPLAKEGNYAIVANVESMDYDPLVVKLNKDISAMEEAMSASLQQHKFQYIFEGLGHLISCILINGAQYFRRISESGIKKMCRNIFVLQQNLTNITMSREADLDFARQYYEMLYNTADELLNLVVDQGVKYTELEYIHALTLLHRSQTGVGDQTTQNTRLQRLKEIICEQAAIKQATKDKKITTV
Assay: ITC; 300 µM SAP102 truncation in the syringe titrated into 30 µM Sec8c (or Sec8c-Δ958–971) in the cell; 20 mM HEPES pH 7.5, 100 mM NaCl, 1 mM DTT; one-set-of-sites model; control titration (protein to buffer) subtracted
Details: both partners purified

Row | Binder | Kd
1 | B1 | ~4 µM
2 | B2 | ~6 µM
